Data set [1] concerns T1, mutacin 1140 C-terminal carboxyl analog (mu1140-COOH).
T1 sequence: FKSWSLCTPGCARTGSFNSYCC

The test system of a further data set is T2, SFNSYTC.
T2 sequence: SFNSYTC

Regarding MutD, in data set [1], the Observed mass (Da) after in vitro decarboxylation with MutD, 1 hr (MALDI-TOF) amounted to 2310 Da and the Observed mass (Da) after in vitro decarboxylation with MutD, 10 hr (MALDI-TOF) came to 2310 Da. In the data set on SFNSYTC, this substance gave an Observed mass (Da) after in vitro decarboxylation with MutD, 1 hr (MALDI-TOF) of 798 Da.

The values above are taken from patent publication US20180118791.
